B1: 3A7 (Fab, V domains shown)
VH: QVQLVQSGGGLVQPGGSLRLSCAASGFTFRSNAMGWVRQAPGKGLEWVSGISGSGGSTYYADSVKGRFTISRDNSKNTLYLQMNSLRAEDTAVYYCAKHTGGGVWDPIDKWGQGTLVTVSS
VL: EIVLTQSPLSLPVTPGEPASISCRSSQSLLHSNGYTYLDWYLQKPGQSPQLLIYSGSHRASGVPDRFSGSVSGTDFTLRISRVEAEDVGVYYCMQGLQSPFTFGPGTKVDIKR
notes: PH1 Fab variant
B2: 10E10 (Fab, V domains shown)
VH: B1 VH with D106N, K110Y
VL: B1 VL
notes: PH1 Fab variant
B3: 6C8 (Fab, V domains shown)
VH: B1 VH with D109N, K110D
VL: B1 VL
notes: PH1 Fab variant
B4: 11F4 (Fab, V domains shown)
VH: B1 VH with D109S, K110S
VL: B1 VL
notes: PH1 Fab variant
B5: 11F2 (Fab, V domains shown)
VH: B1 VH with K98I, G102A, D109R, K110Y
VL: B1 VL
notes: PH1 Fab variant
B6: 3E2 (Fab, V domains shown)
VH: B1 VH with D109A, K110Y
VL: B1 VL
notes: PH1 Fab variant
B7: 3H1 (Fab, V domains shown)
VH: B1 VH with I108F, D109A, K110Y
VL: B1 VL
notes: PH1 Fab variant
B8: 7B5 (Fab, V domains shown)
VH: B1 VH with D109A, K110Y
VL: B1 VL
notes: PH1 Fab variant
B9: 10F3 (Fab, V domains shown)
VH: B1 VH with D109V, K110P
VL: B1 VL
notes: PH1 Fab variant
B10: 11F7 (Fab, V domains shown)
VH: B1 VH with G102V, I108M, D109N, K110Y
VL: B1 VL
notes: PH1 Fab variant
B11: 10A9 (Fab, V domains shown)
VH: B1 VH with D109H, K110N
VL: B1 VL
notes: PH1 Fab variant
B12: 11D4 (Fab, V domains shown)
VH: B1 VH with I108M, D109A, K110S
VL: B1 VL
notes: PH1 Fab variant
B13: 3D1 (Fab, V domains shown)
VH: B1 VH with K98Q, D109G, K110Y
VL: B1 VL
notes: PH1 Fab variant
B14: 10E1 (Fab, V domains shown)
VH: B1 VH with D109A, K110Y
VL: B1 VL
notes: PH1 Fab variant
B15: 3F3 (Fab, V domains shown)
VH: B1 VH with G102R, K110Y
VL: B1 VL
notes: PH1 Fab variant
B16: 8F5 (Fab, V domains shown)
VH: B1 VH with D109A, K110Y
VL: B1 VL
notes: PH1 Fab variant
B17: 6C10 (Fab, V domains shown)
VH: B1 VH with D109H, K110Y
VL: B1 VL
notes: PH1 Fab variant
B18: 7F3 (Fab, V domains shown)
VH: B1 VH with K98I, D109K, K110Y
VL: B1 VL
notes: PH1 Fab variant; also called clone 7F3
B19: 10B3 (Fab, V domains shown)
VH: B1 VH with D109G, K110Y
VL: B1 VL
notes: PH1 Fab variant
B20: 10F9 (Fab, V domains shown)
VH: B1 VH with D106N, D109G, K110H
VL: B1 VL
notes: PH1 Fab variant
B21: 3B8 (Fab, V domains shown)
VH: B1 VH with G102A, K110Y
VL: B1 VL
notes: PH1 Fab variant
B22: 7D1 (Fab, V domains shown)
VH: B1 VH with D109K, K110H
VL: B1 VL
notes: PH1 Fab variant; also called clone 7D1
B23: 6B5 (Fab, V domains shown)
VH: B1 VH with D109A, K110Y
VL: B1 VL
notes: PH1 Fab variant
B24: 10C10 (Fab, V domains shown)
VH: B1 VH with G102V, D109K, K110Y
VL: B1 VL
notes: PH1 Fab variant
B25: 3B9 (Fab, V domains shown)
VH: B1 VH with I108L, D109G, K110Y
VL: B1 VL
notes: PH1 Fab variant
B26: 6C5 (Fab, V domains shown)
VH: B1 VH with A97V, D109V, K110Y
VL: B1 VL
notes: PH1 Fab variant
B27: 6E4 (Fab, V domains shown)
VH: B1 VH with I108V, K110Y
VL: B1 VL
notes: PH1 Fab variant
B28: 3F7 (Fab, V domains shown)
VH: B1 VH with D109Y, K110Y
VL: B1 VL
notes: PH1 Fab variant
B29: 11B9 (Fab, V domains shown)
VH: B1 VH with K98R, D109N, K110Y
VL: B1 VL
notes: PH1 Fab variant
B30: 3D7 (Fab, V domains shown)
VH: B1 VH with G102A, K110Y
VL: B1 VL
notes: PH1 Fab variant
B31: 6A9 (Fab, V domains shown)
VH: B1 VH with G102S, D109N, K110Y
VL: B1 VL
notes: PH1 Fab variant
B32: 3F4 (Fab, V domains shown)
VH: B1 VH with D109A, K110N
VL: B1 VL
notes: PH1 Fab variant
B33: 6F4 (Fab, V domains shown)
VH: B1 VH with A97S, D109G, K110Y
VL: B1 VL
notes: PH1 Fab variant
B34: 11C1 (Fab, V domains shown)
VH: B1 VH with G102E, D109K, K110Y
VL: B1 VL
notes: PH1 Fab variant
B35: 3G1 (Fab, V domains shown)
VH: B1 VH with K110D
VL: B1 VL
notes: PH1 Fab variant
B36: 6B3 (Fab, V domains shown)
VH: B1 VH with D109G, K110H
VL: B1 VL
notes: PH1 Fab variant
B37: 6B6 (Fab, V domains shown)
VH: B1 VH with D109G, K110Y
VL: B1 VL
notes: PH1 Fab variant
B38: 3H2 (Fab, V domains shown)
VH: B1 VH with I108M, K110Y
VL: B1 VL
notes: PH1 Fab variant
B39: 5A6 (Fab, V domains shown)
VH: B1 VH with A97V, K110Y
VL: B1 VL
notes: PH1 Fab variant
B40: 10F8 (Fab, V domains shown)
VH: B1 VH with I108M, D109H, K110Y
VL: B1 VL
notes: PH1 Fab variant

Substitutions are numbered along the chain they refer to.

The target in this experiment is T1, MUC1 60-mer peptide NH2-(…)3-COOH (biotinylated in the ELISAs and selections).
T1 construct: also called biotinylated MUC1 60-mer
T1 sequence (peptide, as listed by the source): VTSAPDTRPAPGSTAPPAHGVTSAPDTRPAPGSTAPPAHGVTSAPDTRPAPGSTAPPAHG
Description: ELISA, soluble Fab, biotinylated MUC1 60-mer; relative signal. As for the experimental part: Soluble Fabs were produced as described (Roovers et al., Br. J. Cancer, 78: 1407-16 (1998)). ELISAs were performed as described by Henderikx et al. (Cancer Res., 58: 4324-4332 (1998)), except the biotinylated MUC1 60-mer was used. The selected PH1 and the affinity-matured antibodies were evaluated for affinity by surface plasmon resonance (SPR) on a BIAcore 2000 apparatus (BIAcore AB, Uppsala, Sweden). Channels of a biotin chip were coated with a MUC1 15-mer, containing the minimal PH1 epitope, PAP, (Ac-PDTRPAPGSTAPPAL-NH₂, (SEQ ID NO:40) 50 RU or 320 RU) or a 60-mer (NH₂-([…])₃-COOH (i.e., containing three copies of SEQ ID NO:8 (von Mensdorff-Pouilly et al., Tumor Biol., 19: 186-195 (1998), 50 RU) in HBS-EP buffer (Pharmacia). One surface was blocked with biotin (15 RU) and used as a negative control. The antibodies were injected in HBS-EP buffer. To minimize rebinding of the antigen binding fragments, the flow speed was 30 μl/sec. Affinity calculation was performed with the BIA-evaluation software provided by the BIAcore. The affinities of the Fabs were calculated according to a 1:1 stoichiometry at steady state.
Regarding B1, the binding result is listed as “binds”.
Take B2: the binding result is on record as “binds”.
Regarding B3, the binding result is recorded as “binds”.
Take B4: the binding result is reported as “binds”.
As to B5, the binding result is given as “binds”.
With B6, the binding result was “binds”.
Consider B7, for which the binding result was “binds”.
In the case of B8, the binding result is listed as “binds”.
On to B9, for which the binding result is reported as “binds”.
The result for B10 reads “binds”; that for B11, “binds”; that for B12, “binds”.
B13: the binding result was “binds”.
For the molecule B14, the binding result was “binds”.
Consider B15, for which the binding result was “binds”.
For B16, the binding result was “binds”.
In the case of B17, the binding result is “binds”.
B18: the binding result is “binds”.
On to B19, for which the binding result is on record as “binds”.
In the case of B20, the binding result is recorded as “binds”.
As to B21, the binding result was “binds”.
The entry for B22 is “binds”; for B23 it is “binds”; for B24 it is “binds”.
The entry for B25 is “binds”; for B26 it is “binds”; for B27 it is “binds”.
With B28, the binding result is “binds”.
For B29, the binding result is listed as “binds”.
In the case of B30, the binding result was “binds”.
The entry for B31 is “binds”.
Consider B32, for which the binding result was “binds”.
Turning to B33, the binding result is reported as “binds”.
With B34, the binding result is “binds”.
On to B35, for which the binding result was “binds”.
Consider B36, for which the binding result is “binds”.
Take B37: the binding result was “binds”.
The result for B38 reads “binds”.
Consider B39, for which the binding result is “binds”.
Consider B40, for which the binding result is recorded as “binds”.

The values are drawn from patent US20020146750A1 (published 2002).
